Source: patent US20140274782A1 (Stanford University, published 2014)

Legend:
Assay in all cases: ProtoArray, GST-treated control array;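 further: human protein microarray (about 9500 recombinant proteins) incubated overnight with GST alone plus SAM cofactor as the negative control for G9a SET domain methylation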
[1] = biological target: T1, CNTD1-Cyclin N-terminal domain-containing protein 1 (human, UniProt Q8N815 1-330)
T1 sequence: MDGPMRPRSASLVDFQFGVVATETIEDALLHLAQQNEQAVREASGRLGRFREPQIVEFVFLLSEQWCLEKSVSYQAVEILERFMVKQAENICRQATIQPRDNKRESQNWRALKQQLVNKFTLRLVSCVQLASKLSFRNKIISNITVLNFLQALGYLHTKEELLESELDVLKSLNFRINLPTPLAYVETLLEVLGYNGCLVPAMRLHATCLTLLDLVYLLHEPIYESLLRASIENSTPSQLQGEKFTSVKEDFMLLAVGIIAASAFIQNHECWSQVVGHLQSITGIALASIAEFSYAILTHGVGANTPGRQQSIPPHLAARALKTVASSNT

[2] = biological target: T2, CRYZL1-crystallin, zeta (quinone reductase)-like 1 (CRYZL1) (human, UniProt O95825 1-349, limits assumed)
T2 sequence (looked up): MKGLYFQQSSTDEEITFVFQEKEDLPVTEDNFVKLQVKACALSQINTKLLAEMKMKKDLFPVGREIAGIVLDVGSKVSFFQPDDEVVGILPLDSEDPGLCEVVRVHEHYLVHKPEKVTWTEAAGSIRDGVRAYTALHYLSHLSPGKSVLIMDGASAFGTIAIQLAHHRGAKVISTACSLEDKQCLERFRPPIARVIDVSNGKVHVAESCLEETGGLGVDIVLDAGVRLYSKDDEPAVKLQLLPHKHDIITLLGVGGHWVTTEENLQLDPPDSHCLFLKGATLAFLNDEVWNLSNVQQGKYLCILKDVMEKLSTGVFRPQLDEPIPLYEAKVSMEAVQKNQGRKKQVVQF

[3] = biological target: T3, SH3YL1-SH3 domain containing, Ysc84-like 1 (S. cerevisiae), mRNA (cDNA clone MGC:12275 IMAGE:3996120), … (human, UniProt Q96HL8 1-342, limits assumed)
T3 sequence (looked up): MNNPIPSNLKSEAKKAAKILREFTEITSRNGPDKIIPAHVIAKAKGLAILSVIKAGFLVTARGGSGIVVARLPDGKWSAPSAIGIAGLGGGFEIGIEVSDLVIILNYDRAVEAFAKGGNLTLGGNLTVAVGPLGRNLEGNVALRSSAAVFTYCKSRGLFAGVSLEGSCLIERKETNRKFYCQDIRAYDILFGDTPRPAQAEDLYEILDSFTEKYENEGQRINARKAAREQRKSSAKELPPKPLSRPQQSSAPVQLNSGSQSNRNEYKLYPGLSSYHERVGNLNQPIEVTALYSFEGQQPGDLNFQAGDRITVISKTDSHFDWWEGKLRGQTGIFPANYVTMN

[4] = biological target: HS3ST1-heparan sulfate (glucosamine) 3-O-sulfotransferase 1 (HS3ST1) (human, UniProt O14792 21-307, limits assumed)
HS3ST1-heparan sulfate (glucosamine) 3-O-sulfotransferase 1 (HS3ST1), sequence (O14792 21-307 limits assumed): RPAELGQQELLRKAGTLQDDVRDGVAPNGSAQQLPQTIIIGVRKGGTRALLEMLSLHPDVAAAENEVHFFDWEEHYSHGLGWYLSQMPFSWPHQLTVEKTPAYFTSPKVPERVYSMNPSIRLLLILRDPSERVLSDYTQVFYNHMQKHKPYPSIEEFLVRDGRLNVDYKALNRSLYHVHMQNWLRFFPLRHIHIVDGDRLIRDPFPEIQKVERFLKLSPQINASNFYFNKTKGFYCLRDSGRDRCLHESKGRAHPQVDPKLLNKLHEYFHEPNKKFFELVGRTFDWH

[5] = biological target: LOC145788-PREDICTED: Homo sapiens hypothetical LOC145788 (LOC145788) (human)
[6] = biological target: T4, GNPTAB-N-acetylglucosamine-1-phosphate transferase, alpha and beta subunits (GNPTAB) (human, UniProt Q3T906 1-1256, limits assumed)
T4 sequence (looked up): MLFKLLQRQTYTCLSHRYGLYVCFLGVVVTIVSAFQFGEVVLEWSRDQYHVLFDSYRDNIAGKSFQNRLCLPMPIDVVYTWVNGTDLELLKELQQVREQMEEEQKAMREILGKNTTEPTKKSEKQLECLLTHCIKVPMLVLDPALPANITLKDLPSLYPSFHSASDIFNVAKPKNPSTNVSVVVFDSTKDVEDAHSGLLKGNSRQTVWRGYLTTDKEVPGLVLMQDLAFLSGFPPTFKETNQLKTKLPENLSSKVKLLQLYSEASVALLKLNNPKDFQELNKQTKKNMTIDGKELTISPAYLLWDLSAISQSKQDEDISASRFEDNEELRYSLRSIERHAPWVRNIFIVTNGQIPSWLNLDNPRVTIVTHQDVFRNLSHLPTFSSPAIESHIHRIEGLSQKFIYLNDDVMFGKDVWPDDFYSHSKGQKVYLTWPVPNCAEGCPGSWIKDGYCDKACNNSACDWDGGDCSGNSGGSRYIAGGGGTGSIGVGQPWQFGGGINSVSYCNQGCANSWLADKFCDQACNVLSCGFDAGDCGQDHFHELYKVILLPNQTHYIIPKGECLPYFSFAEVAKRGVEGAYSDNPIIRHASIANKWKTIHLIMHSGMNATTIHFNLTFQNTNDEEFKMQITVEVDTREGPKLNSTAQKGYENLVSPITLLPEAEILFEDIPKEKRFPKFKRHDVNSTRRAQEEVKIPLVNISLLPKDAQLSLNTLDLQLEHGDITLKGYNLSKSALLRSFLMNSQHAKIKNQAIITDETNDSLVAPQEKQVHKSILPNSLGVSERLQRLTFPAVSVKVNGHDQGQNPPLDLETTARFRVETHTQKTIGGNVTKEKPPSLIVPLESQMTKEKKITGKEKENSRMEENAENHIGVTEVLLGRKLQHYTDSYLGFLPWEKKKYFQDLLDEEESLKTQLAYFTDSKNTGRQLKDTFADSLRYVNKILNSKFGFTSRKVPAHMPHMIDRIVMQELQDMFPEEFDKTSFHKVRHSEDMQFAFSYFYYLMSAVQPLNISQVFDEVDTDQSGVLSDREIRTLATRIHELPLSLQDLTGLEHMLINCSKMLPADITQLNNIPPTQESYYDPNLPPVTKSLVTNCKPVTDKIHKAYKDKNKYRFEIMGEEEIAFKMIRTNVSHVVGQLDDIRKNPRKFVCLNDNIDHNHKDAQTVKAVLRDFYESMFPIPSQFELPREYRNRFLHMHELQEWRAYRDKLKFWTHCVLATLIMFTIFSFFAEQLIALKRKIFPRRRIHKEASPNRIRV

[7] = biological target: FTH1-Ferritin heavy chain (human, UniProt P02794 1-183)
FTH1-Ferritin heavy chain, sequence (P02794 whole entry): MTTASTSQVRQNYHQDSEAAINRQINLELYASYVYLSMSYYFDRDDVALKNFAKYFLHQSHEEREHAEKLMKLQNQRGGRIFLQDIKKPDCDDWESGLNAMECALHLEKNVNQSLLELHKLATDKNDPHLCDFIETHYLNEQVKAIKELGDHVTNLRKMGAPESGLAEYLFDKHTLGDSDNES

B1: 3× Flag-3×MBT (designed binder)
chain: EEWSSSQPATGEKKECWSWESYLEEQKAITAPVSLFQDSQAVTHNKNGFKLGMKLEGIDPQHPSMYFILTVAEVCGYRLRLHFDGYSECHDFWVNANSPDIHPAGWFEKTGHKLQPPKGYKEEEFSWSQYLRSTRAQAAPKHLFVSQSHSPPPLGFQVGMKLEAVDRMNPSLVCVASVTDVVDSRFLVHFDNWDDTYDYWCDPSSPYIHPVGWCQKQGKPLTPPQDYPDPDNFCWEKYLEETGASAVPTWAFKVRPPHSFLVNMKLEAVDRRNPALIRVASVEDVEDHRIKIHFDGWSHGYDFWIDADHPDIHPAGWCSKTGHPLQPPLGPREPSSASPGG
notes: also called Flag-tagged 3×MBT; 3xFlag-3xMBT; not shown: made by PreScission cleavage of GST-3× Flag-3×MBT
[1]
  GST Average SNR: 0.567
[2]
  GST Average SNR: -1.42
[3]
  GST Average SNR: 0.26
[4]
  GST Average SNR: 0.092
[5]
  GST Average SNR: 0.224
[6]
  GST Average SNR: 1.15
[7]
  GST Average SNR: 0.815
